From patent US12485192B2, “Cellular targeted label delivery system” (CELLIS AG, priority 2016, dated 2025)

System: CD45+ leukocyte cells (macrophages, monocytes, lymphocytes, granulocytes)
Assay: Uptake of iron binding proteins by CD45+ leukocyte cells in culture
Format: cell-based, mouse
Conditions: incubation 1-4 hrs, 0.1-0.2 mg/ml protein solution, standard culture conditions; FIG. 5
Description: (§1) Obtained cells are incubated in ferritin solution for a time and at the concentration sufficient to ensure proper ratio of ferritin/cell for their full load and also to ensure proper contrast content to obtain proper imaging). The time and concentration may vary depending on the number of molecules encapsulated/adsorbed into the ferritin cage, status of cell activation, condition and number of their intended administration.
For example, to ensure proper load with ferritins, cells are incubated for 1-4 hrs in ferritin solution 0.2 mg/ml in standard culture conditions. The frame of ferritin concentration may vary at least between 0.01 and 4 mg/ml as well as incubation time (5 min-6 hrs or more). Adjusting time and concentration of ferritin load to cells, the influence of ferritin and treatment conditions on cell viability should be minded.
as §1, with “haemoglobin” for “ferritin”, “haemoglobin/cell” for “ferritin/cell”, “imaging.” for “imaging).”, “linked with” for “encapsulated/adsorbed into”, “haemoglobin molecule,” for “ferritin cage,”, “administration. […]” for “administration.”

B1: ferritins: recombinant mouse ferritin protein of SEQ ID NO: 4 expressed in E. coli (protein)
chain: MTTASPSQVRQNYHQDAEAAINRQINLELYASYVYLSMSCYFDRDDVALKNFAKYFLHQSHEEREHAEKLMKLQNQRGGRIFLQDIKKPDRDDWESGLNAMECALHLEKSVNQSLLELHKLATDKNDPHLCDFIETYYLSEQVKSIKELGDHVTNLRKMGAPEAGMAEYLFDKHTLGHGD
uptake of iron binding protein by cells: very easily uptake
